What was measured:
[1] = test system: endogenous REST protein; test: Western blot of endogenous REST protein levels in transfected E12.5 neurospheres; format: cell-based; conditions: E12.5 mouse cortical neurospheres after transfection; MG132 4 h; compared to control peptides
Method: FIG. 7B is an image of a Western blot showing endogenous REST protein levels in E12.5 neurospheres after transfection. Lane 1, empty vector; lane 2, control (595-694) peptide; lane 3, REST(810-910) S861/864A peptide; lane 4, REST(810-910) WT peptide; lane 5, empty vector with MG132 treated for 4 h. The blot was probed with anti-mouse-REST antibody and anti-tubulin (loading control) antibodies.
There is a significant difference between REST (810-910) compared to control (595-694) peptide (n=5, p=0.0021) and REST(810-910) compared to S861/864A REST(810-910) (n=5, p=0.046). The difference between MG132 and REST(810-910) is not significant (n=5, p=0.7996, Sidak's multiple comparison test, error bars represent 95% confidence interval).
The Examples above used the REST (810-910) reporter as a surrogate substrate for signaling molecules that target S861/S864 on full-length REST. […]
Whole cell lysates were prepared and immunoprecipitated following the procedures in Ballas N et al, 2001 supra and Nesti E et al, Mol Biol Cell 15, 4073-4088 (2004); incorporated by reference herein. Western blots were performed by standard procedures using antibodies described below and analyzed using anti IgG conjugated to infrared dyes (ThermoFisher) on an Odyssey® infrared fluorescence imager (LiCor). […] Infrared fluorescence was detected on the Odyssey® imager (LiCor) in the 700 nm channel. […]

[2] = test system: E12.5 neurospheres; test: Neuronal differentiation of E12.5 neurospheres (MAP2 immunostaining); format: cell-based, mouse; conditions: neurospheres differentiated 10 d, versus control (595-694) peptide, p<0.0001
Source text: FIG. 8A is a photomicrograph of representative immuno-labeled E12.5 neurospheres transfected with REST (810-910)- or control peptide-IRES-GFP, sorted, and then allowed to differentiate for 10 d in culture. White, DAPI nuclei; Red, MAP2 antibody.
Results are from three different transfections. Fields were selected from multiple places on the cover slip, number of cells indicated on bars (p<0.0001, unpaired t test).
Previous studies indicate that persistent REST expression in progenitors inhibits neuronal differentiation. Therefore, it was assessed whether stabilization of REST, via expression of the unmutated REST (810-910) peptide in neural progenitors, would also hinder neuronal differentiation. Mouse neurosphere cultures were immunostained for Microtubule Associated […] 2 (MAP2), a marker of mature neurons, at days 0 and 10 post-transfection. On day 0 there was negligible MAP2 signal and no significant difference between the two conditions.
HEK293T cells were transfected using Lipofectamine 2000 (Life Technologies) following the manufacturer's instructions. PC12 tet, PC12 tet-on FLAG-REST, and HEK293T cell lines were maintained as described in Ballas N et al 2001 supra. […]

[3] = test system: neural progenitor cells; test: Cortical neuronal migration after in utero electroporation in rat embryos; format: in vivo; conditions: cDNA electroporated in utero at E16, harvested E18, 6 embryos, 18 cortical slices
Method: REST protein lacking S861/864 (negative control) and wild-type REST (810-910) peptide (experimental) were expressed in the lateral ventrical of the cortex of rat embryos (E16) by injection and in utero electroporation of the respective cDNA into neural stem cells. The embryos were then allowed to gestate for 48 hours (E18) prior to harvesting. Panel 1 and 2 are representative E18 cortical brain slices expressing REST protein lacking S861/864 (negative control) and wild-type REST protein (experimental).
FIG. 11B is a plot showing that the effect of wild type REST (810-910) peptide on neuronal migration is quantitative. […] No significant difference in neural stem cell migration between the control REST protein lacking S861/864 (negative control) and the wild-type REST (810-910) peptide (experimental) in the SVZ and the intermediate zone (IZ) (Boxes 1 and 2). […] Error bars represent standard deviation, (**P<0.001, *P<0.01 unpaired t test).

B1: REST (810-910) peptide: peptide encoding amino acids 810-to-910 of REST with unmutated S861/S864, expressed from cDNA (protein)
chain: ISKKPPLRKDKKEKSNMQSERARKEQVLIEVGLVPVKDSWLLKESVSTEDLAPPAPPLPKENLREEASGDQKLLNTGEGNKEAPLQKVGAEEADESLPGLA
For B1, the “Endogenous full-length REST protein levels” value [1] was “significantly stabilized endogenous full-length REST protein”, the MAP2-positive cells [2] was “fewer MAP2-positive cells” and the “Migration of neural progenitor cells from the SVZ toward the cortical plate (CP)” value [3] was “significantly less migration to the CP”.

— patent US20160031958A1, “METHODS AND COMPOSITIONS USEFUL IN MANIPULATING THE STABILITY OF RE1 SILENCING TRANSCRIPTION FACTOR” (OREGON HEALTH & SCIENCE UNIVERSITY, priority 2014, published 2016)
